The results in this text go back to the DeepSol protein solubility set.

A short description of this series: soluble on expression in E. coli; label from the status in PepcDB or PDB records.
Regarding “MKQGKFSVFLILLLMLTLVVAPKGKAEAASSGWQPVSGISGCKIRVITDAYTYTKSATSIDAYAETNGKCGKLNYKSFGVSIVEGGDIGPQYSGYFSSRTPTKKFYFSKLPKPTGTPWAVGLSVYKGKAKGAAFVYINPQKRLEHHHHHH”, the “soluble on expression in E. coli” value is “not soluble”.
Next, “MICARIRPLISSPLAFTISTTKHSRINLRLLPRRSFSVMSSSTPQSQIIEHIVLFKTKDDADSTKITSMINNLNALAYLDQVLHISTSPLHRISSATAFTHVLHSRYESKEDLASYAAHPDHVRVVKESVLPICDDIMAVDWIADRIPGTVAPLPGSVAKLTLLKLKEDVADEAKSEITGVIKGLSEKFPGIDQITVGENFSPARAKGFSIASIAYFKDLSEMEAVDAQKELVNSQKDKVRDYVDSTIVVEFVVPSSSQSSSL”: “soluble”; “MGSDKIHHHHHHMPKLKLIGVDLGGTTFSVGLVSEDGKILKKVTRDTLVENGKEDVIRRIAETILEVSDGEEAPYVGIGSPGSIDRENGIVRFSPNFPDWHNVPLTDELAKRTGKKVFLENDANAFVLGEKWFGAGRGHDHIVALTLGTGIGGGVVTHGYLLTGRDGIGAELGHVVVEPNGPMCNCGTRGCLEAVASATAIRRFLREGYKKYHSSLVYKLAGSPEKADAKHLFDAARQGDRFALMIRDRVVDALARAVAGYIHIFNPEIVIIGGGISRAGEILFGPLREKVVDYIMPSFVGTYEVVASPLVEDAGILGAASIIKERIGG”: “not soluble”; “MGSDKIHHHHHHMRYFSTDSPEVKTIVAQDSRLFQFIEIAGEVQLPTKPNPFQSLVSSIVEQQLSIKAASAIYGRVEQLVGGALEKPEQLYRVSDEALRQAGVSKRKIEYIRHVCEHVESGRLDFTELEGAEATTVIEKLTAIKGIGQWTAEMFMMFSLGRLDVLSVGDVGLQRGAKWLYGNGEGDGKKLLIYHGKAWAPYETVACLYLWKAAGTFAEEYRSLEELLHHGNQC”: “soluble”.
For the sequence “MSLGNASMTKTDIATRVHNHTWKLDPIVRSLIDTDFYKLLMLQMIWKLYPEVDATFSLINRTKTVRLAEEIDEMELREQLDHARTLRLSKKENIWLAGNTFYGRSQIFEPEFLSWLSSYQLPEYELFKRDGQYELNFHGRWMDTTLWEIPALSIINELRSRSAMRSLGYFTLDVLYARAKAKMWEKVERLRELPGLRISDFGTRRRHSFLWQRWCVEALKEGIGPAFTGTSNVLLAMDSDLEAVGTNAHELPMVVAALAQTNEELAAAPYQVLKDWNRLYGGNLLIVLPDAFGTAAFLRNAPEWVADWTGFRPDSAPPIEGGEKIIEWWRKMGRDPRTKMLIFSDGLDVDAIVDTYRHFEGRVRMSFGWGTNLTNDFAGCAPKTIASLKPISIVCKVSDANGRPAVKLSDNPQKATGDPAEVERYLKFFGEEDHKEQKVLVEGHHHHHH”, the “soluble on expression in E. coli” value was “soluble”.
Next, “MIDEYDDLAHDSSEGEFEPNTLTPEEKPPHNVDEDRIESTGVAAPMQGTEEPEKGDQKESDGASQVDQSVEITRPETSYYQTLESPSTKRQKLDQQGNGDQTRDFGTSMEL”: “soluble”.
The same measure for “MNNVLILLDNPDDWKPYCETKSILTVSDYLKNKPVEKDRKLVINLSNDYSYNSEGYYCSLLAQTRGQRVIPDVDIINKLETGTGIRMDRSLQALCYQWIQKNGIKSDIWYLNIYFGKCREKGLERVARFIFENYPCPLLRVALNTHPKNQIESIQFLPLNRLDDEEQDFFANTLDNFNKKIWRAPKSAKAPRYSLAVLIDPKEKFPPSNKGALHKLSEVAKKMNIHVEMITEDDAMRLLEFDALFIRTTTSLNHYTFHLSQLAAQNGMVVIDDPLSIIRCTNKVYLKELFEKERIPAPKSTLIFQSNENSFEQISEQVGAPFILKIPDGSYSIGMKKVSNEEELKTSLELLFEKSAILLAQAFTPTEFDWRVGLLNGVPLYACKYYMAKGHWQIYCHYDSGRSRCGLVDTIPIYQVPRVVLDTAIKAANLIGKGLYGVDLKMVDDKAYVIEINDNPSIDHELEDAIIGDEMYYRLLNHFEQALEMKHY”: “not soluble”; for “MGSDKIHHHHHHMQIVACYSNKGGVGKTATAVNLAYAFATSGRRTLLCDLDPQGASGFYFRVKPSKKLTEARFFEDVEHFTKSIRGSDYDNLDILPANMSFRDFDVFLSKMKDARSRLKKALKAVKGDYDIVLLDCPPNISILSENIFRAADAVVTPVIPTTLSQRTFEQLLEFFREHDLPMEKIHAFFSMIQGTKTLHGEMIVELTHNYPKRIMAAKIPFASEIERMGVVRAPVLATAPDSPAGKAYQALFDELLERIVP”: “not soluble”.
With “MQDTTLLQMITDDMVSARQLLELLQAESLILHGRDMSEMEQVLAQKQALVILLDQHGRKRSQVLAGMGLPANRSGLQQLASQSEVGEQLLTSSDELNALINECQTLNDQNGSLIQLQQISTAHQLRILNGGETPTLYDARGSTALRAKPRPLSQA”, the “soluble on expression in E. coli” value is on record as “not soluble”.
The same measure for “MGSDKIHHHHHHMILSEVRIHNFRNIASTSLILNPNFNCITGPNGGGKTSLLEALYMLSCAHSFRSREITPIISYGQNQLNVFAHAYDESTISVQKSITDGTQIKLNNQFCCTTSQLAYALPCQVIYSDIFQIIDAGPSVRRSLLDWGLFHVKHDYLKIWKDYKRILSQRNALLKSRATYDHFIPWDQQLSQLANQLDKARNDYFLQWQPKFYQVLSDLTNISCTVEYYKGWDRKNAGQNMEELLQKSFDSDRKKLYTQYGPHQADLIISTEQYRVKHTLSRGQQKIILIALKLAQGQLLDKDCLYLIDDLAAELDDYHQRNLIKYLTQQKGQFVITNLINNNNYDILPIDSGLFEVNCGAIKNL”: “not soluble”; for “MGSDKIHHHHHHMSFKKVDLSRYQFDGAQASSIGDLTQLDAADKQRLLYAGIDVNQQNLAGSFMHMNHSGVHCTSRQEGLEILDIKQALDTYHGLPDYFWKLVDRNKDEYTRAADEHLHGGYFIRARAGAKIEAPVQSCLFIKGNGVGQNVHNVVVVEEGAEMHIITGCATAHDTRSVAHLGISEFYVHKGGKLTFTMIHNWGEEAAVRPRSAGYLEEDAVFLSNYVLLKPVTDLQMYPTITLGGRGSVARFNSVIVAPTGSYVDTGNRILLEAPDTRGEIIARTMTTGGTIINRGHIAGHAVPARGHLECKGLILGGGVIHAIPELEGTQDGVELSHEAAVGKIAQEEIEYLMARGLDEDEATSTIVRGFLNVDIMGLPEELEKAVEEQINQLDAGDAM”: “not soluble”.
For “MGSDKIHHHHHHVKTNLEHWVTLQEKGYFENHPFYQERQVNDDAARVEKATPLTKDMKIAIIGCGYGRESASFCRRVRKVYGIDVSWTILAKALERMLADNHVNFTPVLASQWKTILPDGGLDLVYSVVVFQHLTRDLVDDYIGGLKGKLRPGGRFYVQFCDSDTGEADADLRFYEPNVRWTEDDIRILARRHGLDLLSLDSERVTPTASWHWALMEKADDR”, the “soluble on expression in E. coli” value is listed as “not soluble”.
Next, “MGSSHHHHHHSSGLVPRGSHMSQDVPGNLLDEIRILRSPKGYLYAGLPKFRALFGRDSIISSIQLIDLFPDIAQNTVIYLKDLQGRKLDYSIGEYPGKILHEYYDDEKIFLDRKRSIPWLNSRINYFSVDSTPLFILLIKNLFLRNLIDIEQFKDSIMMAMQFLIAYSSSDGLITYDKALLGAGLMSQSWRDGVGDIMDRLKSPVATVGVQGYFYESADFVLNLFPDSLIEESLPDLKDFYSKMREILENKFWLEETGYYGLAVDGDGVIEQAATSDPGHLIGSGILTRSRERDVIDRLFESDLLTDYGIRTLSAKDPRFDPKAYQRGSIWPQDNWIIADGIKRRGYLKEYRELRERLIAAYEYYGRMPEYFGVDRYGKIMDLSKLRIKPCYPQAWSTGAIINFVTFK”: “soluble”.
Take “ERTRAEQKLAETNVFLNSVVDGVAEPMVVVGLDRRVIMTNRAARDFFQISDVGSDEACHRLIHHRDTPCVREEGMQCPLLDVRTAKRPVIATQEHRDRSGDKRVVEVMTSPLLGSDGVAIGIIEAFRDIT”: the “soluble on expression in E. coli” value is “not soluble”.
Next, “MALLPFFDLTNFESDASEELGWLKYVGRVQTRVFPQHFKDNLEKVRKISETIDVIVDTTAELGPEACVNLLNAGALAILVNEEMLNELADISPNRLVLKTDTTDIGKIEKLSQVAGSIQWIGSAENYPPDFFERASKIIHKAVMPEGGGRTLYLEFPEQPSMEVLKSFSVHSVVPVLSSSFLTVKPAEEPKKLSLADLILISANTDREDGLFSTLVVNELGIALGLVYSSKESVAESLKTGTGVYQSRKRGLWYKGASSGAVQHLIHIDVDCDEDCLRFVVYQTGKGFCHLDTLHCFGQASGLCQLEKTLIDRKNNAPEGSYTARLFSDPKLLRAKIMEEAEELCDATTKENVIWEMADLMYFAITRCVGSGVSLNDISRHLDLKHRKVTRRKGDAKVAWQEKLKDKGGVANTSYTA”: “soluble”; “MATWEEYLGAQQANDGVQFTWNMWPHSRVDSQKLVVPLTCFFTPLKERPSTEVAQPPLEYDPVLCQKASCKAILNPLCAVDYRAKIWMCPFCNNRNPFPAHYAAIAEDNRPPELYPQFTTIEYTLRKATTMPPIFVFVVDTCMTAEELKSLKECLQTALSLLPADALVGLITYGRMVQLHELNTQGISRSYVFKGTKEVTAKQIKDVMAGGGLSQRPAAGAPGAPAGAPGAPMAMGSGAAPLGQLPGSGLPGGLPRGGGPPLPGAAQGIVAPGGGAPVPHAPANKFLQPISECDESINDLIDQISIDRWPVPQGHRPLRATGAALAVAVTLLESCFPSTGARIMSFIGGACTHGPGAVVGEELKNPIRSWNSIKEDAAPYMKKAIKFYDGLAARIVKNGHAVDVYSCALDQTGLLEMKNMFNSSGGHVVMGDSFNSSLFKQTYQRSFDKDSAGNLKMGFNATMEVKVGAGLKIEGVLGCCASGNVRNANVSDQEMGIGGTCQWKFGAISPRTTIGVVFEIAAQHGSAIPQGGRGMVQFVTQYQHADGRKRIRVTTTCRTWADMATQQPNIAYGFDQEAAAVAIARLASFRASNENDTPEALRWLDRSLIRLCQKFGEYSKDDPNSFRLSDKFSLFPQFMFHLRRSQFLQVFNNSPDETAYYRHILFSENVLESTTMIQPVLFSYSFNGPPEPVLLDTSSILADRILLMDDYFHVLIYHGQTIAQWRKQNFHENPQYATFKQLLEAPVADATSILQERFPMPRYIVTEHEGSQARFLLSKVNPSLTHNNPYANEAGSAVFTDDVSLQVFMEHLKKLSSSSST”: “not soluble”; “PQEEVVRLHASSGTTGKPTVVGYTQNDIDTWANVVARSIRAAGGRKGDKVHVSYGYGLFTGGLGAHYGAERLGCTVIPMSGGQTEKQVQLIRDFHPDIIMVTPSYMLNLADEIERQGIDPHDLKLRLGIFGAEPWTDELRRSIEQRMGINALDIYGLSEIMGPGVAMECIETKDGPTI”: “not soluble”.
The same measure for “ENHEKEWRFNSRITLVRSPIMLGQQTSHGWRDLIFDVSGGGATPAKHVMQYTGVSYPLNPSMAPTATPEQISGVRLFSDGISPVREGVRL”: “not soluble”; for “MFRNVAELVELAESQAIPISEVMIRQEIEVTERSREAIIEQMENHLDVMEKAVRRGITEQVRSVSGLTGGDAVLLQDYLKKGNYLSSETVLDAVSKAVATNEVNAAMGTICATPTAGASGVVPGVLFGMEKRLSPTKEQKVRFLFTSGAFGFVVANNASISGAAGGCQAEVGSATGMAAAALVELAGGTPSQSAEAMAIALKNMLGLVCDPVAGLVEVPCVKRNAIGASIAITAADMALAGIQSRIPTDEVIDAMYKIGQAMPVAYKETAQGGLAATPKGRELEAKIFGVALDKK”: “not soluble”; for “MSDKHINLVIVTGMSGAGKTVAIQSFEDLGYFTIDNMPPALVPKFLELIEQTNENRRVALVVDMRSRLFFKEINSTLDSIESNPSIDFRILFLDATDGELVSRYKETRRSHPLAADGRVLDGIRLERELLSPLKSMSQHVVDTTKLTPRQLRKTISDQFSEGSNQASFRIEVMSFGFKYGLPLDADLVFDVRFLPNPYYQVELREKTGLDEDVFNYVMSHPESEVFYKHLLNLIVPILPAYQKEGKSVLTVAIGCTGGQHRSVAFAHCLAESLATDWSVNESHRDQNRRKETVNRS”: “not soluble”.
